T1: Hop1 K65A,N67Q (Saccharomyces cerevisiae, UniProt P20050 1-605, K65A;N67Q)
T1 sequence: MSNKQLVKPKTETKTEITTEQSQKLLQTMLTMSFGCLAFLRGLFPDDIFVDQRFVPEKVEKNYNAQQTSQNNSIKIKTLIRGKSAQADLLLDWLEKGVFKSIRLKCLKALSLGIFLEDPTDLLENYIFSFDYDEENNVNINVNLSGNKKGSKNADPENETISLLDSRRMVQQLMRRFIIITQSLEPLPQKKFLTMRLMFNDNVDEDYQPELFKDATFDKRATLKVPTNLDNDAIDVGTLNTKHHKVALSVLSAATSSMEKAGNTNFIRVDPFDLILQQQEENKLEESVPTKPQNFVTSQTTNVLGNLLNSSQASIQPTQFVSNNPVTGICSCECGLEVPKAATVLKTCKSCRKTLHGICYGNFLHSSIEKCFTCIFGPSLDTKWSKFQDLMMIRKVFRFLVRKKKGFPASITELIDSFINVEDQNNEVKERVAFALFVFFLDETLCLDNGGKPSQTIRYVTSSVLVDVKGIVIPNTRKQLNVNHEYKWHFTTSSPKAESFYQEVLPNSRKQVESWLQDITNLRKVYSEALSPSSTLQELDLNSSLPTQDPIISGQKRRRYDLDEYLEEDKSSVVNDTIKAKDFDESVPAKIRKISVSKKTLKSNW


Key:
Hop1 K65A,N67Q [1] = molecular target: T1, Hop1 K65A,N67Q; assay: MST; 25 nM HJ; EMSA: 25 mM HEPES pH 7.5, 0.5 nM 32P-HJ, 37 C 15 min, 8% PAGE in TBE (25 mM Tris base pH 8.0, 25 mM boric acid, 0.5 mM EDTA) at 4 C; MST: 25 nM 6-FAM HJ, buffer not in material; conditions: protein: recombinant; tags: His6 (pET28a); label: 5'-6FAM on HJ02; four-way junction of 4 strands
Hop1 K65A,N67Q [2] = molecular target: T1, Hop1 K65A,N67Q; assay: EMSA; 0.5 nM HJ; EMSA: 25 mM HEPES pH 7.5, 0.5 nM 32P-HJ, 37 C 15 min, 8% PAGE in TBE (25 mM Tris base pH 8.0, 25 mM boric acid, 0.5 mM EDTA) at 4 C; MST: 25 nM 6-FAM HJ, buffer not in material; conditions: protein: recombinant; tags: His6 (pET28a); label: 5'-32P on HJ02; four-way junction of 4 strands

Row | Binder | Kd (Hop1 K65A,N67Q [1]) [nM] | binding signal (Hop1 K65A,N67Q [2])
1 | Holliday junction (HJ), 6-FAM (structured_DNA) DNA 1: GACGCTGCCGAATTCTACCAGTGCCTTGCTAGGACATCTTTGCCCACCTGCCGGTTCACCC DNA 2: TGGGTGAACCTGCAGGTGGGCAAAGATGTCCTAGCAATGTAATCGTCAAAGCTTTATGCCGTT DNA 3: CAACGGCATAAAGCTTGACGATTACATTGCTAGGACATGCTGTCTAGAGGATCCGACTATCGA DNA 4: ATCGATAGTCGGATCCTCTAGACAGCATGTCCTAGCAAGGCACTGGTAGAATTCGGCAGCGT | 495 | –
2 | Holliday junction (HJ), 32P (structured_DNA) DNA 1: GACGCTGCCGAATTCTACCAGTGCCTTGCTAGGACATCTTTGCCCACCTGCCGGTTCACCC DNA 2: TGGGTGAACCTGCAGGTGGGCAAAGATGTCCTAGCAATGTAATCGTCAAAGCTTTATGCCGTT DNA 3: CAACGGCATAAAGCTTGACGATTACATTGCTAGGACATGCTGTCTAGAGGATCCGACTATCGA DNA 4: ATCGATAGTCGGATCCTCTAGACAGCATGTCCTAGCAAGGCACTGGTAGAATTCGGCAGCGT | – | ~1.7 fold lower affinity than WT

Reference: article PMC11797056, “The ATPase activity of yeast chromosome axis protein Hop1 affects the frequency of meiotic crossovers” (Nucleic Acids Research, 2024)
